Experimental findings from paper PMC5861430 (Nucleic Acids Research, 2018) are described below.

To fix the notation:
T1: GST-APE2 (Xenopus laevis, UniProt Q6DDT4 1-517)
T1 sequence (looked up): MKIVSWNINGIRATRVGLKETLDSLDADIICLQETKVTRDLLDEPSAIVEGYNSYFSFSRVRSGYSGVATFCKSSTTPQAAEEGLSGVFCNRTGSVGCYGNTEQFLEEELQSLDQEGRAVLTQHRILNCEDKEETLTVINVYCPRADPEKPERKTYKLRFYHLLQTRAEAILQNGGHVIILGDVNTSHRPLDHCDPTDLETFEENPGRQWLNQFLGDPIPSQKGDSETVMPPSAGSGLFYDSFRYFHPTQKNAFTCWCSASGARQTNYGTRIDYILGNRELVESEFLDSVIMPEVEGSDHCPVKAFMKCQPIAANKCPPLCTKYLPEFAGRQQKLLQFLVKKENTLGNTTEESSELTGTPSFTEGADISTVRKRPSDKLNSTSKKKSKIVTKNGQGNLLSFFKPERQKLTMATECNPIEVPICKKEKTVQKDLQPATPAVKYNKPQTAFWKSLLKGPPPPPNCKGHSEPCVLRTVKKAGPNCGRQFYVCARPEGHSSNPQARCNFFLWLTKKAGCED

B1: WT His-tagged PCNA (natural protein, Xenopus laevis, UniProt P18248 1-261, looked up)
chain: MFEARLVQGSILKKVLEALKDLIDEACWDITSSGISLQSMDSSHVSLVQLTLRSDGFDTYRCDRNQSIGVKMSSMSKILKCAASDDIITLRAEDNADTVTMVFESPNQEKVSDYEMKLMDLDVEQLGIPEQEYSCVIKMPSGEFARICRDLSQIGDAVVISCAKDGVKFSASGELGTGNVKLSQTSNVDKEEEAVTIEMNEPVQLTFALRYLNFFTKATPLSPTVILSMSADIPLVVEYKIADMEHVKYYLAPKIEDEEAS
B2: GST-APE2-ZF (domain or fragment, Xenopus laevis, UniProt Q6DDT4 456-517, looked up)
chain: GPPPPPNCKGHSEPCVLRTVKKAGPNCGRQFYVCARPEGHSSNPQARCNFFLWLTKKAGCED

What all share (test): pull-down
For one assay, the target named is T1, GST-APE2.
The assay “WT His-tagged PCNA” addresses B1.
The target in assay [1] is PK PCNA (P253A-K254A PCNA) (Xenopus laevis, UniProt P18248 1-261, P253A | K254A).

Consider B1, for which the binding result in the assay with GST-APE2 is reported as “binds”.
B2: the binding result (in the assay with WT His-tagged PCNA; in assay [1]) was “binds” each time.
